This note sets out measurements from patent US10662413B2, “Recombinant DNA polymerase for improved incorporation of nucleotide analogues” (PERSONAL GENOMICS, INC., priority 2016, dated 2020).

B1: KOD^exo−: KOD^exo− DNA polymerase with mutations at residues 141 and 143 (SEQ ID NO: 5) (protein)
chain: MILDTDYITEDGKPVIRIFKKENGEFKIEYDRTFEPYFYALLKDDSAIEEVKKITAERHGTVVTVKRVEKVQKKFLGRPVEVWKLYFTHPQDVPAIRDKIREHPAVIDIYEYDIPFAKRYLIDKGLVPMEGDEELKMLAFAIATLYHEGEEFAEGPILMISYADEEGARVITWKNVDLPYVDVVSTEREMIKRFLRVVKEKDPDVLITYNGDNFDFAYLKKRCEKLGINFALGRDGSEPKIQRMGDRFAVEVKGRIHFDLYPVIRRTINLPTYTLEAVYEAVFGQPKEKVYAEEITTAWETGENLERVARYSMEDAKVTYELGKEFLPMEAQLSRLIGQSLWDVSRSSTGNLVEWFLLRKAYERNELAPNKPDEKELARRRQSYEGGYVKEPERGLWENIVYLDFRSLYPSIIITHNVSPDTLNREGCKEYDVAPQVGHRFCKDFPGFIPSLLGDLLEERQKIKKKMKATIDPIERKLLDYRQRAIKILANSYYGYYGYARARWYCKECAESVTAWGREYITMTIKEIEEKYGFKVIYSDTDGFFATIPGADAETVKKKAMEFLKYINAKLPGALELEYEGFYKRGFFVTKKKYAVIDEEGKITTRGLEIVRRDWSEIAKETQARVLEALLKDGDVEKAVRIVKEVTEKLSKYEVPPEKLVIHEQITRDLKDYKATGPHVAVAKRLAARGVKIRPGTVISYIVLKGSGRIGDRAIPFDEFDPTKHKYDAEYYIENQVLPAVERILRAFGYRKEDLRYQKTRQVGLSAWLKPKGT
modifications: Thermococcus kodakarensis kod1; KODexo- DNA polymerase
B2: D480N: KOD^exo− mutant D480N (protein)
chain: MILDTDYITENGKPVIRVFKKENGEFKIEYDRTFEPYFYALLKDDSAIEDVKKVTAKRHGTVVKVKRAEKVQKKFLGRPIEVWKLYFNHPQDVPAIRDRIRAHPAVVDIYEYDIPFAKRYLIDKGLIPMEGDEELTMLAFAIATLYHEGEEFGTGPILMISYADGSEARVITWKKIDLPYVDVVSTEKEMIKRFLRVVREKDPDVLITYNGDNFDFAYLKKRCEELGIKFTLGRDGSEPKIQRMGDRFAVEVKGRIHFDLYPVIRRTINLPTYTLEAVYEAVFGKPKEKVYAEEIAQAWESGEGLERVARYSMEDAKVTYELGREFFPMEAQLSRLIGQSLWDVSRSSTGNLVEWFLLRKAYKRNELAPNKPDERELARRRGGYAGGYVKEPERGLWDNIVYLDFRSSAVSIIITHNVSPDTLNREGCKEYDVAPEVGHKFCKDFPGFIPSLLGDLLEERQKIKRKMKATVDPLEKKLLNYRQRLIKILANSFYGYYGYAKARWYCKECAESVTAWGREYIEMVIRELEEKFGFKVLYADTDGLHATIPGADAETVKKKAKEFLKYINPKLPGLLELEYEGFYVRGFFVTKKKYAVIDEEGKITTRGLEIVRRDWSEIAKETQARVLEAILKHGDVEEAVRIVKEVTEKLSKYEVPPEKLVIHEQITRDLRDYKATGPHVAVAKRLAARGVKIRPGTVISYIVLKGSGRIGDRAIPADEFDPTKHRYDAEYYIENQVLPAVERILKAFGYRKEDLRYQKTKQVGLGAWLKVKGKK
B3: D480W: KOD^exo− mutant D480W (protein)
chain: B2 chain with N480W
B4: D480H: KOD^exo− mutant D480H (protein)
chain: B2 chain with N480H
B5: D480R: 9° N-III mutant D480R, nucleotide binding pocket (protein)
chain: B2 chain with N480R
B6: D480G: 9° N-III mutant D480G, nucleotide binding pocket (protein)
chain: B2 chain with N480G
B7: I486R: 9° N-III mutant I486R, nucleotide binding pocket (protein)
chain: B2 chain with N480D, I486R
B8: I486P: 9° N-III mutant I486P, nucleotide binding pocket (protein)
chain: B2 chain with N480D, I486P
B9: I486A: 9° N-III mutant I486A, nucleotide binding pocket (protein)
chain: B2 chain with N480D, I486A
B10: I486F: 9° N-III mutant I486F, nucleotide binding pocket (protein)
chain: B2 chain with N480D, I486F
B11: L485F: 9° N-III mutant L485F, nucleotide binding pocket (protein)
chain: B2 chain with N480D, L485F
B12: I486Y: 9° N-III mutant I486Y, nucleotide binding pocket (protein)
chain: B2 chain with N480D, I486Y
B13: D480A: 9° N-III mutant D480A, nucleotide binding pocket (protein)
chain: B2 chain with N480A
B14: V282F: 9° N-III mutant V282F, nucleotide binding pocket (protein)
chain: B2 chain with V282F, N480D
B15: D480P: 9° N-III mutant D480P, nucleotide binding pocket (protein)
chain: B2 chain with N480P
B16: K477F: 9° N-III mutant K477F, nucleotide binding pocket (protein)
chain: B2 chain with K477F, N480D
B17: I486W: 9° N-III mutant I486W, nucleotide binding pocket (protein)
chain: B2 chain with N480D, I486W
B18: D480M: 9° N-III mutant D480M, nucleotide binding pocket (protein)
chain: B2 chain with N480M
B19: D480I: 9° N-III mutant D480I, nucleotide binding pocket (protein)
chain: B2 chain with N480I
B20: V410G: 9° N-III mutant V410G, nucleotide binding pocket (protein)
chain: B2 chain with V410G, N480D
B21: V410P: 9° N-III mutant V410P, nucleotide binding pocket (protein)
chain: B2 chain with V410P, N480D

Positions count from the first letter of the chain named. Numbers in names are those of the source.

One series has as its system 5′Q-3′-Ga. The class given is biochemical. Conditions: KOD^exo− background.
Take B1: the “conversion of 5′Q-3′-Ga” value is recorded as 37%. Still for that read-out and setting: the same measure for B2: 83%; for B3: 77%; for B4: 84%.

Another series relates to 5′Q-3′-Ga.
Conditions: not given
B5: the “conversion rate (C.R.) of extension product” value (from here on “conversion rate”) is 83%. On the same count and under the same terms, for B6 the value was 80%; for B7, 87%.

On to B8, for which the “conversion rate” value is 100%. On the same count and under the same terms, the same measure for B9: 82%; for B10: 81%; for B11: 74%.

Consider B12, for which the “conversion rate” value is given as 82%.

On to B13, for which the “conversion rate” value is 81%.

Consider B14, for which the “conversion rate” value is recorded as 66%.

For the molecule B15, the “conversion rate” value is recorded as 82%. Take B16: the “conversion rate” value was determined as 82%. On the same count and under the same terms, the same measure for B17: 81%; for B18: 80%. B19: the “conversion rate” value is given as 82%. On the same count and under the same terms, for B20 the value was 69%; for B21, 78%.
